The results in this text go back to publication PMC5834252, “Targeting scFv-Fc-scTRAIL fusion proteins to tumor cells” (Oncotarget, 2018).

The target of this experiment is T1, Mouse TRAIL-R2-Fc (mouse, UniProt Q9QZM4 53-180).
T1 construct: mouse TRAIL-R2; Named in the materials only; source: bought: Sino Biological Inc. (50412-M03H)
Briefly: ELISA; Fc fusion proteins of human and mouse TRAIL receptors coated (200 ng/well); 40 nM scTRAIL units; detected with anti-FLAG-HRP; relative OD450. The note with it: both partners purified.

T1 sequence (Q9QZM4 53-180): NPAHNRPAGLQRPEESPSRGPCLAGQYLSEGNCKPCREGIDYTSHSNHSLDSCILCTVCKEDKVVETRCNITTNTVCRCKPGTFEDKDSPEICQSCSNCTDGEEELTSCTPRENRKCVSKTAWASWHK

B1: Fc-scTRAIL (Fc fusion, human)
chain: GPQRVAAHITGTRGRSNTLSSPNSKNEKALGRKINSWESSRSGHSFLSNLHLRNGELVIHEKGFYYIYSQTYFRFQEEIKENTKNDKQMVQYIYKYTSYPDPILLMKSARNSCWSKDAEYGLYSIYQGGIFELKENDRIFVSVTNEHLIDMDHEASFFGAFLVGGGPQRVAAHITGTRGRSNTLSSPNSKNEKALGRKINSWESSRSGHSFLSNLHLRNGELVIHEKGFYYIYSQTYFRFQEEIKENTKNDKQMVQYIYKYTSYPDPILLMKSARNSCWSKDAEYGLYSIYQGGIFELKENDRIFVSVTNEHLIDMDHEASFFGAFLVGGGPQRVAAHITGTRGRSNTLSSPNSKNEKALGRKINSWESSRSGHSFLSNLHLRNGELVIHEKGFYYIYSQTYFRFQEEIKENTKNDKQMVQYIYKYTSYPDPILLMKSARNSCWSKDAEYGLYSIYQGGIFELKENDRIFVSVTNEHLIDMDHEASFFGAFLVG
notes: human TRAIL, first protomer of single-chain TRAIL (scTRAIL), amino acids 118-281; single glycine residue as linker between the TRAIL protomers; human TRAIL, second protomer of scTRAIL, amino acids 118-281; human TRAIL, third protomer of scTRAIL, amino acids 118-281; scTRAIL is fused to the C-terminus of the human gamma1 Fc; disulfide-linked dimer (hexavalent TRAIL); also called non-targeted …
Regarding B1, the binding result is on record as “binds”.
